First the molecules themselves.
B1: Mcm7 (natural protein, S. cerevisiae, UniProt P38132 1-845, looked up)
chain: MSAALPSIQLPVDYNNLFNEITDFLVTFKQDTLSSDATRNENEDENLDAENIEQHLLEKGPKYMAMLQKVANRELNSVIIDLDDILQYQNEKFLQGTQADDLVSAIQQNANHFTELFCRAIDNNMPLPTKEIDYKDDVLDVILNQRRLRNERMLSDRTNEIRSENLMDTTMDPPSSMNDALREVVEDETELFPPNLTRRYFLYFKPLSQNCARRYRKKAISSKPLSVRQIKGDFLGQLITVRGIITRVSDVKPAVEVIAYTCDQCGYEVFQEVNSRTFTPLSECTSEECSQNQTKGQLFMSTRASKFSAFQECKIQELSQQVPVGHIPRSLNIHVNGTLVRSLSPGDIVDVTGIFLPAPYTGFKALKAGLLTETYLEAQFVRQHKKKFASFSLTSDVEERVMELITSGDVYNRLAKSIAPEIYGNLDVKKALLLLLVGGVDKRVGDGMKIRGDINVCLMGDPGVAKSQLLKAICKISPRGVYTTGKGSSGVGLTAAVMKDPVTDEMILEGGALVLADNGICCIDEFDKMDESDRTAIHEVMEQQTISISKAGINTTLNARTSILAAANPLYGRYNPRLSPLDNINLPAALLSRFDILFLMLDIPSRDDDEKLAEHVTYVHMHNKQPDLDFTPVEPSKMREYIAYAKTKRPVMSEAVNDYVVQAYIRLRQDSKREMDSKFSFGQATPRTLLGIIRLSQALAKLRLADMVDIDDVEEALRLVRVSKESLYQETNKSKEDESPTTKIFTIIKKMLQETGKNTLSYENIVKTVRLRGFTMLQLSNCIQEYSYLNVWHLINEGNTLKFVDDGTMDTDQEDSLVSTPKLAPQTTASANVSAQDSDIDLQDA
B2: Mcm2 (natural protein, S. cerevisiae, UniProt P29469 1-868, looked up)
chain: MSDNRRRRREEDDSDSENELPPSSPQQHFRGGMNPVSSPIGSPDMINPEGDDNEVDDVPDIDEVEEQMNEVDLMDDNMYEDYAADHNRDRYDPDQVDDREQQELSLSERRRIDAQLNERDRLLRNVAYIDDEDEEQEGAAQLDEMGLPVQRRRRRRQYEDLENSDDDLLSDMDIDPLREELTLESLSNVKANSYSEWITQPNVSRTIARELKSFLLEYTDETGRSVYGARIRTLGEMNSESLEVNYRHLAESKAILALFLAKCPEEMLKIFDLVAMEATELHYPDYARIHSEIHVRISDFPTIYSLRELRESNLSSLVRVTGVVTRRTGVFPQLKYVKFNCLKCGSILGPFFQDSNEEIRISFCTNCKSKGPFRVNGEKTVYRNYQRVTLQEAPGTVPPGRLPRHREVILLADLVDVSKPGEEVEVTGIYKNNYDGNLNAKNGFPVFATIIEANSIKRREGNTANEGEEGLDVFSWTEEEEREFRKISRDRGIIDKIISSMAPSIYGHRDIKTAVACSLFGGVPKNVNGKHSIRGDINVLLLGDPGTAKSQILKYVEKTAHRAVFATGQGASAVGLTASVRKDPITKEWTLEGGALVLADKGVCLIDEFDKMNDQDRTSIHEAMEQQSISISKAGIVTTLQARCSIIAAANPNGGRYNSTLPLAQNVSLTEPILSRFDILCVVRDLVDEEADERLATFVVDSHVRSHPENDEDREGEELKNNGESAIEQGEDEINEQLNARQRRLQRQRKKEEEISPIPQELLMKYIHYARTKIYPKLHQMDMDKVSRVYADLRRESISTGSFPITVRHLESILRIAESFAKMRLSEFVSSYDLDRAIKVVVDSFVDAQKVSVRRQLRRSFAIYTLGH
B3: Mcm3 (Flag-tagged subunit of Mcm2-7) (natural protein, S. cerevisiae, UniProt P24279 1-971, looked up)
chain: MEGSTGFDGDATTFFAPDAVFGDRVRRFQEFLDTFTSYRDSVRSIQVYNSNNAANYNDDQDDADERDLLGDDDGDDLEKEKKAASSTSLNILPHRIIISLDDLREFDRSFWSGILVEPAYFIPPAEKALTDLADSMDDVPHPNASAVSSRHPWKLSFKGSFGAHALSPRTLTAQHLNKLVSVEGIVTKTSLVRPKLIRSVHYAAKTGRFHYRDYTDATTTLTTRIPTPAIYPTEDTEGNKLTTEYGYSTFIDHQRITVQEMPEMAPAGQLPRSIDVILDDDLVDKTKPGDRVNVVGVFKSLGAGGMNQSNSNTLIGFKTLILGNTVYPLHARSTGVAARQMLTDFDIRNINKLSKKKDIFDILSQSLAPSIYGHDHIKKAILLMLMGGVEKNLENGSHLRGDINILMVGDPSTAKSQLLRFVLNTASLAIATTGRGSSGVGLTAAVTTDRETGERRLEAGAMVLADRGVVCIDEFDKMTDVDRVAIHEVMEQQTVTIAKAGIHTTLNARCSVIAAANPVFGQYDVNRDPHQNIALPDSLLSRFDLLFVVTDDINEIRDRSISEHVLRTHRYLPPGYLEGEPVRERLNLSLAVGEDADINPEEHSNSGAGVENEGEDDEDHVFEKFNPLLQAGAKLAKNKGNYNGTEIPKLVTIPFLRKYVQYAKERVIPQLTQEAINVIVKNYTDLRNDDNTKKSPITARTLETLIRLATAHAKVRLSKTVNKVDAKVAANLLRFALLGEDIGNDIDEEESEYEEALSKRSPQKSPKKRQRVRQPASNSGSPIKSTPRRSTASSVNATPSSARRILRFQDDEQNAGEDDNDIMSPLPADEEAELQRRLQLGLRVSPRRREHLHAPEEGSSGPLTEVGTPRLPNVSSAGQDDEQQQSVISFDNVEPGTISTGRLSLISGIIARLMQTEIFEEESYPVASLFERINEELPEEEKFSAQEYLAGLKIMSDRNNLMVADDKVWRV
B4: Mcm4 (natural protein, S. cerevisiae, UniProt P30665 1-933, looked up)
chain: MSQQSSSPTKEDNNSSSPVVPNPDSVPPQLSSPALFYSSSSSQGDIYGRNNSQNLSQGEGNIRAAIGSSPLNFPSSSQRQNSDVFQSQGRQGRIRSSASASGRSRYHSDLRSDRALPTSSSSLGRNGQNRVHMRRNDIHTSDLSSPRRIVDFDTRSGVNTLDTSSSSAPPSEASEPLRIIWGTNVSIQECTTNFRNFLMSFKYKFRKILDEREEFINNTTDEELYYIKQLNEMRELGTSNLNLDARNLLAYKQTEDLYHQLLNYPQEVISIMDQTIKDCMVSLIVDNNLDYDLDEIETKFYKVRPYNVGSCKGMRELNPNDIDKLINLKGLVLRSTPVIPDMKVAFFKCNVCDHTMAVEIDRGVIQEPARCERIDCNEPNSMSLIHNRCSFADKQVIKLQETPDFVPDGQTPHSISLCVYDELVDSCRAGDRIEVTGTFRSIPIRANSRQRVLKSLYKTYVDVVHVKKVSDKRLDVDTSTIEQELMQNKVDHNEVEEVRQITDQDLAKIREVAAREDLYSLLARSIAPSIYELEDVKKGILLQLFGGTNKTFTKGGRYRGDINILLCGDPSTSKSQILQYVHKITPRGVYTSGKGSSAVGLTAYITRDVDTKQLVLESGALVLSDGGVCCIDEFDKMSDSTRSVLHEVMEQQTISIAKAGIITTLNARSSILASANPIGSRYNPNLPVTENIDLPPPLLSRFDLVYLVLDKVDEKNDRELAKHLTNLYLEDKPEHISQDDVLPVEFLTMYISYAKEHIHPIITEAAKTELVRAYVGMRKMGDDSRSDEKRITATTRQLESMIRLAEAHAKMKLKNVVELEDVQEAVRLIRSAIKDYATDPKTGKIDMNLVQTGKSVIQRKLQEDLSREIMNVLKDQASDSMSFNELIKQINEHSQDRVESSDIQEALSRLQQEDKVIVLGEGVRRSVRLNNRV

Experiment [1] concerns the target B3. In words: co-IP.
The next experiment concerns the target Mcm6 (S. cerevisiae, UniProt P53091 1-1017). In words: co-IP.

This is an account of results in PMC4156824 (Molecular cell, 2014).

Chain of Mcm6 (P53091 whole entry): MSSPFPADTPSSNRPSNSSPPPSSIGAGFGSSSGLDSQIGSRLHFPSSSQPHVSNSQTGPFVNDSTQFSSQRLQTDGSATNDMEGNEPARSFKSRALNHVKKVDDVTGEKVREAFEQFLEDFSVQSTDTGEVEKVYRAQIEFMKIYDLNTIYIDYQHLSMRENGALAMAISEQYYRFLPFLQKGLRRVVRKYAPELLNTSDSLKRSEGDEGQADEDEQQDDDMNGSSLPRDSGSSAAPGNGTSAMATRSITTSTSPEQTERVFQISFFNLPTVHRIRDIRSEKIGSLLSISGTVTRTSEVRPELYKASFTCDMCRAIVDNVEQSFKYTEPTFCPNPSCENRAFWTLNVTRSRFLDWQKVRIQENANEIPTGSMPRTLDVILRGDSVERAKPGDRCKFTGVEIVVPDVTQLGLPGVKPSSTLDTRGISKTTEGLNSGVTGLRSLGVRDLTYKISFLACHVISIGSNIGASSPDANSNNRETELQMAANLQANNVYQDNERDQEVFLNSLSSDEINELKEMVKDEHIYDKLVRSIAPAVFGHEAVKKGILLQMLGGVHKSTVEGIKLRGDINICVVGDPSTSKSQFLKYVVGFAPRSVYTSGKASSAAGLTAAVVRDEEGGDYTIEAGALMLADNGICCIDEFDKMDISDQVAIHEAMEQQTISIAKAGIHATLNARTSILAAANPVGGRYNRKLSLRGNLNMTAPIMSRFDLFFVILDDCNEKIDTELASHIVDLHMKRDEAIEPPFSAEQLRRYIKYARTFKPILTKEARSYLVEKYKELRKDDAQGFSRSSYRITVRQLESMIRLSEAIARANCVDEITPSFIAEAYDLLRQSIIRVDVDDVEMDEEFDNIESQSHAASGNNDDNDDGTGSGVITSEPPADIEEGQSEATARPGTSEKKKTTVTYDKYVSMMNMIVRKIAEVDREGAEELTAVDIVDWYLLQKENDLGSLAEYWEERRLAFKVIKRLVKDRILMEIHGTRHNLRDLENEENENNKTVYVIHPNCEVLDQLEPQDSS

In the case of B1, the binding result in experiment [1] is “binds”.
Same read-out and setting: in the case of B2 it was “binds”.
For the molecule B3, in the experiment with Mcm6, the binding result is given as “binds”.
On to B4, for which the binding result in experiment [1] was “binds”.
